This note sets out measurements from patent US20240342215A1 (Regeneron, published 2024).

Bounds are passed on as bounds.

Assay [1] has as its target human CD33 on tumor cells (A549.CD33; A549 electroporated with CD33 mRNA; HL-60, Kasumi1, OCI-AML3) (human, UniProt P20138 18-364). In words: cell-based or functional assay.
For assay [2], the target named is MAGEA4 peptide presented by HLA-A2 on tumor cells (A549 transduced with MAGEA4 and HLA-A2; A549 pulsed with …). Description: cell-based or functional assay.
Assay [3] deals with T1, His labeled CD33-Fc reagent (Acros) (UniProt P20138 18-259).
T1 construct: Secondary staining was with APC labeled streptavidin; not shown: Fc part and His label of the bought reagent
T1 sequence (P20138 18-259): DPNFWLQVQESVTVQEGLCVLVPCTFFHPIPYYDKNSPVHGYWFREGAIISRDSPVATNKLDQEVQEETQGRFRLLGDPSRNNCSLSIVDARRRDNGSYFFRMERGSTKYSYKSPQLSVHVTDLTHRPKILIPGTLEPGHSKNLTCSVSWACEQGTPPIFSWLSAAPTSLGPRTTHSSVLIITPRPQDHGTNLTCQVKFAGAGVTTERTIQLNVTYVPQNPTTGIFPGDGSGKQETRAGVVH
In words: flow cytometry; CD33-Fc staining of transduced T cells, APC labeled streptavidin secondary.

Chain of human CD33 on tumor cells (A549.CD33; A549 electroporated with CD33 mRNA; HL-60, Kasumi1, OCI-AML3) (P20138 18-364): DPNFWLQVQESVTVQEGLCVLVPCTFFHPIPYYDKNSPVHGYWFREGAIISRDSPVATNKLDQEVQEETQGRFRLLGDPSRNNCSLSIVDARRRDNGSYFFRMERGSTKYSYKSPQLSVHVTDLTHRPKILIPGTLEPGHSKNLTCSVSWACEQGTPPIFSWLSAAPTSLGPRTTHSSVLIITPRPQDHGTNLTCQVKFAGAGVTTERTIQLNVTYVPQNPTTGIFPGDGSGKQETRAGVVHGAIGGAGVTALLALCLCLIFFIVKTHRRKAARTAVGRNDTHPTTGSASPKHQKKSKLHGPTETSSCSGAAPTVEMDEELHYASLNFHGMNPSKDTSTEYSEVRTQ

B1: VHH-TCR with a VHH added to the TRA separated by a mu linker (LEKT)+G4S; TRB-P2A-CD33.VHH-mLNK.1xG4S-TRA (SEQ ID NO: 94) (TCR)
TCR beta: DSGVTQTPKHLITATGQRVTLRCSPRSGDLSVYWYQQSLDQGLQFLIQYYNGEERAKGNILERFSAQQFPDLHSELNLSSLELGDSALYFCASSGGDGDEQFFGPGTRLTVLEDLKNVFPPEVAVFEPSKAEIAHTQKATLVCLATGFYPDHVELSWWVNGKEVHSGVSTDPQPLKEQPALNDSRYCLSSRLRVSATFWQNPRNHFRCQVQFYGLSENDEWTQDRAKPVTQIVSAEAWGRADCGITSASYHQGVLSATILYEILLGKATLYAVLVSALVLMAMVKRKDSRG
TCR alpha: EVQLVESGGGEVQPGGSLRLSCAASRSSGIDVMGWYRQAPGKERELVAEISGVGDTNYAASLADRFTVSRDNAKNTVYLQMSSLRAEDTAVYYCNAHSFLDLVGAWGQGTLVTVKPLEKTGGGGSAQKITQTQPGMFVQEKEAVTLDCTYDTSDPSYGLFWYKQPSSGEMIFLIYQGSYDQQNATEGRYSLNFQKARKSANLVISASQLGDSAMYFCAMSGGYTGGFKTIFGAGTRLFVKANIQNPDPAVYQLRDSKSSDKSVCLFTDFDSQTNVSQSKDSDVYITDKTVLDMRSMDFKSNSAVAWSNKSDFACANAFNNSIIPEDTFFPSSDVPCDVKLVEKSFETDTNLNFQNLLVIVLRILLLKVAGFNLLMTLRLWSS
For B1, the values for the interferon gamma production in assay [1] and in assay [2] were above 2 fold and around 3 fold, respectively.

B2: MAGEA4-reactive, HLA-A2-restricted TCR embedded with tandem VHHs targeting human CD33 and CLL1; TRB-P2A-CLL1-CD33.VHH-mLNK.1xG4S-TRA (SEQ ID NO: 97) (TCR)
TCR beta: DSGVTQTPKHLITATGQRVTLRCSPRSGDLSVYWYQQSLDQGLQFLIQYYNGEERAKGNILERFSAQQFPDLHSELNLSSLELGDSALYFCASSGGDGDEQFFGPGTRLTVLEDLKNVFPPEVAVFEPSKAEIAHTQKATLVCLATGFYPDHVELSWWVNGKEVHSGVSTDPQPLKEQPALNDSRYCLSSRLRVSATFWQNPRNHFRCQVQFYGLSENDEWTQDRAKPVTQIVSAEAWGRADCGITSASYHQGVLSATILYEILLGKATLYAVLVSALVLMAMVKRKDSRG
TCR alpha: EVQLVESGGGEVQPGGSLRLSCAASGFLFSIYDMNWYRQAPGKEREWVAGITNNGYSTAYAESVKGRFTISRDNAKNTIYLQMSSLRAEDTAVYYCHADLTKAYDVEYAWGQGTLVTVKPGGGGSGGGGSEVQLVESGGGEVQPGGSLRLSCAASRSSGIDVMGWYRQAPGKERELVAEISGVGDTNYAASLADRFTVSRDNAKNTVYLQMSSLRAEDTAVYYCNAHSFLDLVGAWGQGTLVTVKPLEKTGGGGSAQKITQTQPGMFVQEKEAVTLDCTYDTSDPSYGLFWYKQPSSGEMIFLIYQGSYDQQNATEGRYSLNFQKARKSANLVISASQLGDSAMYFCAMSGGYTGGFKTIFGAGTRLFVKANIQNPDPAVYQLRDSKSSDKSVCLFTDFDSQTNVSQSKDSDVYITDKTVLDMRSMDFKSNSAVAWSNKSDFACANAFNNSIIPEDTFFPSSDVPCDVKLVEKSFETDTNLNFQNLLVIVLRILLLKVAGFNLLMTLRLWSS
notes: also called CD33-CLL1-TCR; CD33-CLL1 TCR
With B2, the binding result in assay [3] was “binds”.

B3: engineered dual-targeting TCR (VHH-TCR): MAGEA4-reactive, HLA-A2-restricted TCR embedded with a VHH targeting human CD33; TRB-P2A-CD33.VHH-mLNK-TRA (SEQ ID NO: … (TCR)
TCR beta: DSGVTQTPKHLITATGQRVTLRCSPRSGDLSVYWYQQSLDQGLQFLIQYYNGEERAKGNILERFSAQQFPDLHSELNLSSLELGDSALYFCASSGGDGDEQFFGPGTRLTVLEDLKNVFPPEVAVFEPSKAEIAHTQKATLVCLATGFYPDHVELSWWVNGKEVHSGVSTDPQPLKEQPALNDSRYCLSSRLRVSATFWQNPRNHFRCQVQFYGLSENDEWTQDRAKPVTQIVSAEAWGRADCGITSASYHQGVLSATILYEILLGKATLYAVLVSALVLMAMVKRKDSRG
TCR alpha: EVQLVESGGGEVQPGGSLRLSCAASRSSGIDVMGWYRQAPGKERELVAEISGVGDTNYAASLADRFTVSRDNAKNTVYLQMSSLRAEDTAVYYCNAHSFLDLVGAWGQGTLVTVKPLEKTAQKITQTQPGMFVQEKEAVTLDCTYDTSDPSYGLFWYKQPSSGEMIFLIYQGSYDQQNATEGRYSLNFQKARKSANLVISASQLGDSAMYFCAMSGGYTGGFKTIFGAGTRLFVKANIQNPDPAVYQLRDSKSSDKSVCLFTDFDSQTNVSQSKDSDVYITDKTVLDMRSMDFKSNSAVAWSNKSDFACANAFNNSIIPEDTFFPSSDVPCDVKLVEKSFETDTNLNFQNLLVIVLRILLLKVAGFNLLMTLRLWSS
B3 yielded an interferon gamma production in assay [2] of around 3 fold.

B4: VHH-TCR with a VHH added to the TRA separated by a 1xG4S; TRB-P2A-CD33.VHH-1xG4S-TRA (SEQ ID NO: 95) (TCR)
TCR beta: DSGVTQTPKHLITATGQRVTLRCSPRSGDLSVYWYQQSLDQGLQFLIQYYNGEERAKGNILERFSAQQFPDLHSELNLSSLELGDSALYFCASSGGDGDEQFFGPGTRLTVLEDLKNVFPPEVAVFEPSKAEIAHTQKATLVCLATGFYPDHVELSWWVNGKEVHSGVSTDPQPLKEQPALNDSRYCLSSRLRVSATFWQNPRNHFRCQVQFYGLSENDEWTQDRAKPVTQIVSAEAWGRADCGITSASYHQGVLSATILYEILLGKATLYAVLVSALVLMAMVKRKDSRG
TCR alpha: EVQLVESGGGEVQPGGSLRLSCAASRSSGIDVMGWYRQAPGKERELVAEISGVGDTNYAASLADRFTVSRDNAKNTVYLQMSSLRAEDTAVYYCNAHSFLDLVGAWGQGTLVTVKPGGGGSAQKITQTQPGMFVQEKEAVTLDCTYDTSDPSYGLFWYKQPSSGEMIFLIYQGSYDQQNATEGRYSLNFQKARKSANLVISASQLGDSAMYFCAMSGGYTGGFKTIFGAGTRLFVKANIQNPDPAVYQLRDSKSSDKSVCLFTDFDSQTNVSQSKDSDVYITDKTVLDMRSMDFKSNSAVAWSNKSDFACANAFNNSIIPEDTFFPSSDVPCDVKLVEKSFETDTNLNFQNLLVIVLRILLLKVAGFNLLMTLRLWSS
notes: also called VHH-TCR with 1G4S; VHH-TCR with one G4S
Turning to B4, the binding result in assay [3] was “binds”.

B5: VHH-TCR with a VHH added to the TRA separated by a 2xG4S; TRB-P2A-CD33.VHH-2xG4S-TRA (SEQ ID NO: 96) (TCR)
TCR beta: DSGVTQTPKHLITATGQRVTLRCSPRSGDLSVYWYQQSLDQGLQFLIQYYNGEERAKGNILERFSAQQFPDLHSELNLSSLELGDSALYFCASSGGDGDEQFFGPGTRLTVLEDLKNVFPPEVAVFEPSKAEIAHTQKATLVCLATGFYPDHVELSWWVNGKEVHSGVSTDPQPLKEQPALNDSRYCLSSRLRVSATFWQNPRNHFRCQVQFYGLSENDEWTQDRAKPVTQIVSAEAWGRADCGITSASYHQGVLSATILYEILLGKATLYAVLVSALVLMAMVKRKDSRG
TCR alpha: EVQLVESGGGEVQPGGSLRLSCAASRSSGIDVMGWYRQAPGKERELVAEISGVGDTNYAASLADRFTVSRDNAKNTVYLQMSSLRAEDTAVYYCNAHSFLDLVGAWGQGTLVTVKPGGGGSGGGGSAQKITQTQPGMFVQEKEAVTLDCTYDTSDPSYGLFWYKQPSSGEMIFLIYQGSYDQQNATEGRYSLNFQKARKSANLVISASQLGDSAMYFCAMSGGYTGGFKTIFGAGTRLFVKANIQNPDPAVYQLRDSKSSDKSVCLFTDFDSQTNVSQSKDSDVYITDKTVLDMRSMDFKSNSAVAWSNKSDFACANAFNNSIIPEDTFFPSSDVPCDVKLVEKSFETDTNLNFQNLLVIVLRILLLKVAGFNLLMTLRLWSS
notes: also called VHH-TCR with 2G4S; VHH-TCR with two G4Ss
Regarding B5, the binding result in assay [3] was “binds”.

B6: VHH-TCR with a VHH added to the TRB separated by a marsupial mu linker (LEKT); CD33.VHH-mLNK-TRB-P2A-TRA (SEQ ID NO: 91) (TCR)
TCR beta: EVQLVESGGGEVQPGGSLRLSCAASRSSGIDVMGWYRQAPGKERELVAEISGVGDTNYAASLADRFTVSRDNAKNTVYLQMSSLRAEDTAVYYCNAHSFLDLVGAWGQGTLVTVKPLEKTDSGVTQTPKHLITATGQRVTLRCSPRSGDLSVYWYQQSLDQGLQFLIQYYNGEERAKGNILERFSAQQFPDLHSELNLSSLELGDSALYFCASSGGDGDEQFFGPGTRLTVLEDLKNVFPPEVAVFEPSKAEIAHTQKATLVCLATGFYPDHVELSWWVNGKEVHSGVSTDPQPLKEQPALNDSRYCLSSRLRVSATFWQNPRNHFRCQVQFYGLSENDEWTQDRAKPVTQIVSAEAWGRADCGITSASYHQGVLSATILYEILLGKATLYAVLVSALVLMAMVKRKDSRG
TCR alpha: AQKITQTQPGMFVQEKEAVTLDCTYDTSDPSYGLFWYKQPSSGEMIFLIYQGSYDQQNATEGRYSLNFQKARKSANLVISASQLGDSAMYFCAMSGGYTGGFKTIFGAGTRLFVKANIQNPDPAVYQLRDSKSSDKSVCLFTDFDSQTNVSQSKDSDVYITDKTVLDMRSMDFKSNSAVAWSNKSDFACANAFNNSIIPEDTFFPSSDVPCDVKLVEKSFETDTNLNFQNLLVIVLRILLLKVAGFNLLMTLRLWSS
In turn, B6 had an interferon gamma production in assay [1] above 2 fold.

B7: VHH-TCR with a VHH added to the TRB separated by a mu linker+G4S; CD33.VHH-mLNK.1xG4S-TRB-P2A-TRA (SEQ ID NO: 92) (TCR)
TCR beta: EVQLVESGGGEVQPGGSLRLSCAASRSSGIDVMGWYRQAPGKERELVAEISGVGDTNYAASLADRFTVSRDNAKNTVYLQMSSLRAEDTAVYYCNAHSFLDLVGAWGQGTLVTVKPLEKTGGGGSDSGVTQTPKHLITATGQRVTLRCSPRSGDLSVYWYQQSLDQGLQFLIQYYNGEERAKGNILERFSAQQFPDLHSELNLSSLELGDSALYFCASSGGDGDEQFFGPGTRLTVLEDLKNVFPPEVAVFEPSKAEIAHTQKATLVCLATGFYPDHVELSWWVNGKEVHSGVSTDPQPLKEQPALNDSRYCLSSRLRVSATFWQNPRNHFRCQVQFYGLSENDEWTQDRAKPVTQIVSAEAWGRADCGITSASYHQGVLSATILYEILLGKATLYAVLVSALVLMAMVKRKDSRG
TCR alpha: AQKITQTQPGMFVQEKEAVTLDCTYDTSDPSYGLFWYKQPSSGEMIFLIYQGSYDQQNATEGRYSLNFQKARKSANLVISASQLGDSAMYFCAMSGGYTGGFKTIFGAGTRLFVKANIQNPDPAVYQLRDSKSSDKSVCLFTDFDSQTNVSQSKDSDVYITDKTVLDMRSMDFKSNSAVAWSNKSDFACANAFNNSIIPEDTFFPSSDVPCDVKLVEKSFETDTNLNFQNLLVIVLRILLLKVAGFNLLMTLRLWSS
B7 gave an interferon gamma production in assay [1] above 2 fold.
